This passage reports Kd results from article PMC6249252, “COMP and TSP-4 interact specifically with the novel GXKGHR motif only found in fibrillar collagens” (Scientific Reports, 2018).

What all share (test): ELISA; collagen model peptide or collagen XI coated; COMP or TSP-4 at indicated concentrations in TBS-T with 0.25% BSA, 1 h, room temperature; detected with anti-COMP or anti-TSP-4 antibody; four-parameter logistic fit; apparent KD
The target in experiment [1] is GVKGHR foldon collagen model peptide (minimal binding site) (not stated | bacteriophage T4).
Experiment [2] addresses … foldon collagen model peptide (histidine to proline) (not stated | bacteriophage T4).
For experiment [3], the target named is … foldon collagen model peptide (valine to proline) (not stated | bacteriophage T4).

Chain of cartilage oligomeric matrix protein (COMP), wild type, pentameric (P49747 21-757): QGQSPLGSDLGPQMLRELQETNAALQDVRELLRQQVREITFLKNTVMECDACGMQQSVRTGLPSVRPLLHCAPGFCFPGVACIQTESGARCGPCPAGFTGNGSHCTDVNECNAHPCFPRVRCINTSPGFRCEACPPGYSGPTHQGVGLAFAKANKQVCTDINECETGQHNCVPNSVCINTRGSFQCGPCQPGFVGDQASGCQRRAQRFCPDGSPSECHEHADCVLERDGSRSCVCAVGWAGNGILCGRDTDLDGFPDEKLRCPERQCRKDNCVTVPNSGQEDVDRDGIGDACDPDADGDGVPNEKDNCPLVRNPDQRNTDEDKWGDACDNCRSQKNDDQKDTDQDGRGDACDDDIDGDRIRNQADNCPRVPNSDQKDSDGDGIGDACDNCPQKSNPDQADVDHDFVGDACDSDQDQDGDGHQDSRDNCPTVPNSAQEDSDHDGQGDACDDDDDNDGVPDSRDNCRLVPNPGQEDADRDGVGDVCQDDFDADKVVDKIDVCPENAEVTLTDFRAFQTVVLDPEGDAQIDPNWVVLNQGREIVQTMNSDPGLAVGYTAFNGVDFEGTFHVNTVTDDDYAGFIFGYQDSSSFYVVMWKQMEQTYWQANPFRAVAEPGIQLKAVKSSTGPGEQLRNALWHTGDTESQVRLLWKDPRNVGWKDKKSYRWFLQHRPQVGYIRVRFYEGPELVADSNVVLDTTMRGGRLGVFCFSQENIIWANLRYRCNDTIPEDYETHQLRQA
Chain of thrombospondin-4 (TSP-4) (P35443 27-961): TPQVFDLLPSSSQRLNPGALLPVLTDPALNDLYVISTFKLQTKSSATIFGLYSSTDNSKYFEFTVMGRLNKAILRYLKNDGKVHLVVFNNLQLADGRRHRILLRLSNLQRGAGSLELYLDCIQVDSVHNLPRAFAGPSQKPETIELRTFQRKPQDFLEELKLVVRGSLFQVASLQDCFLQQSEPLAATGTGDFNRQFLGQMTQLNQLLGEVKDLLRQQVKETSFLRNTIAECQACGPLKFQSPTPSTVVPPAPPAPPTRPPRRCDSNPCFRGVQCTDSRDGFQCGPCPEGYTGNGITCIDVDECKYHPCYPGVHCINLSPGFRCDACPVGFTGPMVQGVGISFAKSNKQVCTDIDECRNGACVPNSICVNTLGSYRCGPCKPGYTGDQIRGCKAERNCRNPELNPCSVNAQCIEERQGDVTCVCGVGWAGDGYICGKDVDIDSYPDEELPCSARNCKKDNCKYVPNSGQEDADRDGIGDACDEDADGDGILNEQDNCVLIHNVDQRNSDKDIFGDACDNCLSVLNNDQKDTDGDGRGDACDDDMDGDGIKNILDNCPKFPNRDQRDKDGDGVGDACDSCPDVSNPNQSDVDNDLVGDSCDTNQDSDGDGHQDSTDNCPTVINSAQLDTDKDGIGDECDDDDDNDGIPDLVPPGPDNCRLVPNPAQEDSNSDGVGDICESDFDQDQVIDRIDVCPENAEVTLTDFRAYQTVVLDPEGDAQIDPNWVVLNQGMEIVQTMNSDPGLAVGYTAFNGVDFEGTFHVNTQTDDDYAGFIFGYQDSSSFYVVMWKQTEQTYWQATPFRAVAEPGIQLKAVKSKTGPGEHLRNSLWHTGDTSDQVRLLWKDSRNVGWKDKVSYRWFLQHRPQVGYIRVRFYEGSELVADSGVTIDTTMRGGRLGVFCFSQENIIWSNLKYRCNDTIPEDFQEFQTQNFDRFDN

In the case of “cartilage oligomeric matrix protein (COMP), wild type, pentameric (from UniProt P49747 21-757) (natural protein)”, the Kd in experiment [1] came out at 1.61 nM; in experiment [2], 496 nM; in experiment [3], 2.26 nM.
Take “thrombospondin-4 (TSP-4) (from UniProt P35443 27-961) (natural protein)”: the Kd in experiment [1] came out at 0.56 nM.
